The data set concerns the molecule itself. The data set is described as follows: cryo-EM structure.

B1: human sodium-proton exchanger 3 (NHE3/SLC9A3) (natural protein, UniProt P48764 26-834, looked up)
chain: GGVEVEPGGAHGESGGFQVVTFEWAHVQDPYVIALWILVASLAKIGFHLSHKVTSVVPESALLIVLGLVLGGIVWAADHIASFTLTPTVFFFYLLPPIVLDAGYFMPNRLFFGNLGTILLYAVVGTVWNAATTGLSLYGVFLSGLMGDLQIGLLDFLLFGSLMAAVDPVAVLAVFEEVHVNEVLFIIVFGESLLNDAVTVVLYNVFESFVALGGDNVTGVDCVKGIVSFFVVSLGGTLVGVVFAFLLSLVTRFTKHVRIIEPGFVFIISYLSYLTSEMLSLSAILAITFCGICCQKYVKANISEQSATTVRYTMKMLASSAETIIFMFLGISAVNPFIWTWNTAFVLLTLVFISVYRAIGVVLQTWLLNRYRMVQLEPIDQVVLSYGGLRGAVAFALVVLLDGDKVKEKNLFVSTTIIVVFFTVIFQGLTIKPLVQWLKVKRSEHREPRLNEKLHGRAFDHILSAIEDISGQIGHNYLRDKWSHFDRKFLSRVLMRRSAQKSRDRILNVFHELNLKDAISYVAEGERRGSLAFIRSPSTDNVVNVDFTPRSSTVEASVSYLLRENVSAVCLDMQSLEQRRRSIRDAEDMVTHHTLQQYLYKPRQEYKHLYSRHELTPTEDEKQDREIFHRTMRKRLESFKSTKLGLNQNKKAAKLYKRERAQKRRNSSIPNGKLPMESPAQNFTIKEKDLELSDTEEPPNYDEEMSGGIEFLASVTKDTASDSPAGIDNPVFSPDEALDRSLLARLPPWLSPGETVVPSQRARTQIPYSPGTFCRLMPFRLSSKSVDSFLQADGPEERPPAALPESTHM
As a reminder, the stoichiometry N is the number of molecules, sites or subunits per partner or assembly. Consider B1, for which the “stoichiometry N” value was 2.
